Values quoted from earlier work, collected in patent US20060234299A1, “Protein scaffolds and uses thereof” (Avidia Research Institute, priority 2004, published 2006).

settings: commercial drugs

Substance | Human T½ [h]
Enbrel | 103
Remicade: TNFa Antibody | 216
Rituxan: CD20 Antibody | 78
